The text below walks through data of the supplement of paper PMC11908140.

Sequences and labels used below:
B1: library; numbered along this chain (parent)
chain: MRKPRAAVGSGHRKQAASQEGRQKHAKNNSQAKPSACDGLARQPEEVVLQASVSSYHLFRDVAEVTAFRGSLLSWYDQEKRDLPWRRRAEDEMDLDRRAYAVWVSEVMLQQTQVATVINYYTGWMQKWPTLQDLASASLEEVNQLWAGLGYYSRGRRLQEGARKVVEELGGHMPRTAETLQQLLPGVGRYTAGAIASIAFGQATGVVDGNVARVLCRVRAIGADPSSTLVSQQLWGLAQQLVDPARPGDFNQAAMELGATVCTPQRPLCSQCPVESLCRARQRVEQEQLLASGSLSGSPDVEECAPNTGQCHLCLPPSEPWDQTLGVVNFPRKASRKPPREESSATCVLEQPGALGAQILLVQRPNSGLLAGLWEFPSVTWEPSEQLQRKALLQELQRWAGPLPATHLRHLGEVVHTFSHIKLTYQVYGLALEGQTPVTTVPPGARWLTQEEFHTAAVSTAMKKVFRVYQGQQPGTCMGSKRSQVSSPCSRKKPRMGQQVLDNFFRSHISTDAHSLNSAAQ
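Also: cells sorted at 72 h after reporter transfection.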

Variants of B1 are the subject of the data set. Put plainly: 8OG:A repair function score (normalized; synonymous = 0, nonsense = -1) (normalized log-likelihood score); higher = more repair activity (WT-like). The following applies: with 8OG:A DNA repair reporter (GFP) in HEK-293 MUTYH KO cells. The method in brief:
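After 72 h, viable mCherry+ cells were split into GFP+ (repair) and GFP− bins in three replicates per tile. These cells were MUTYH knockout HEK-293 cells holding lentiviral MUTYH cDNA NNN codon-scan libraries, kept in 10 pg/ml doxycycline and co-transfected with mCherry plus an 8OG:A GFP repair reporter. Sequencing of tile amplicons gave per-tile Rosace fitness scores, normalized into a repair function score anchored on synonymous and nonsense distributions. Synonymous medians were fixed at 0, nonsense at -1, and variants under 300 counts per million at the start were removed.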
With MRKPRAAVGSGHRKQAASQEGRQKHAKNNSQAKPSACDGLARQPEEVVLQASVSSYHLFRDVAEVTAFRGSLLSWYDQEKRDLPWRRRAEDEMDLDRRAYAVWVSEVMLQQTQVATVINYYTGWMQKWPTLQDLASASLEEVNQLWAGLGYYSRGRRLQEGARKVVEELGGHMPRTAETLQQLLPGVGRYTAGAIASIAFGQATGVVDGNVARVLCRVRAIGADPSSTLVSQQLWGLAQQLVDPARPGDFNQAAMELGATVCTPQRPLCSQCPVESLCRARQRVEQEQLLASGSLSGSPDVEECAPNTGQCHLCLPPSEPWDQTLGVVNFPRKASRKPPREESSATCVLEQPGALGAQILLVQRPNSGLLAGLWEFPSVSWEPSEQLQRKALLQELQRWAGPLPATHLRHLGEVVHTFSHIKLTYQVYGLALEGQTPVTTVPPGARWLTQEEFHTAAVSTAMKKVFRVYQGQQPGTCMGSKRSQVSSPCSRKKPRMGQQVLDNFFRSHISTDAHSLNSAAQ [T380S], the “8OG:A repair function score” value stood at 0.139. As to MRKPRAAVGSGHRKQAASQEGRQKHAKNNSQAKPSACDGLARQPEEVVLQASVSSYHLFRDVAEVTAFRGSLLSWYDQEKRDLPWRRRAEDEMDLDRRAYAVWVSEVMLQQTQVATVINYYTGWMQKWPTLQDLASASLEEVNQLWAGLGYYSRGRRLQEGARKVVEELGGHMPRTAETLQQLLPGVGRYTAGAIASIAFGQATGVVDGNVARVLCRVRAIGADPSSTLVSQQLWGLAQQLVDPARPGDFNQAAMELGATVCTPQRPLCSQCPVESLCRARQRVEQEQLLASGSLSGSPDVEECAPNTGQCHLCLPPSEPWDQTLGVVNFPRKASRKPPREESSATCVLEQPGALGAQILLVQRPNSGLLAGLWEFPSVQWEPSEQLQRKALLQELQRWAGPLPATHLRHLGEVVHTFSHIKLTYQVYGLALEGQTPVTTVPPGARWLTQEEFHTAAVSTAMKKVFRVYQGQQPGTCMGSKRSQVSSPCSRKKPRMGQQVLDNFFRSHISTDAHSLNSAAQ [T380Q], the “8OG:A repair function score” value came to 0.429. Then MRKPRAAVGSGHRKQAASQEGRQKHAKNNSQAKPSACDGLARQPEEVVLQASVSSYHLFRDVAEVTAFRGSLLSWYDQEKRDLPWRRRAEDEMDLDRRAYAVWVSEVMLQQTQVATVINYYTGWMQKWPTLQDLASASLEEVNQLWAGLGYYSRGRRLQEGARKVVEELGGHMPRTAETLQQLLPGVGRYTAGAIASIAFGQATGVVDGNVARVLCRVRAIGADPSSTLVSQQLWGLAQQLVDPARPGDFNQAAMELGATVCTPQRPLCSQCPVESLCRARQRVEQEQLLASGSLSGSPDVEECAPNTGQCHLCLPPSEPWDQTLGVVNFPRKASRKPPREESSATCVLEQPGALGAQILLVQRPNSGLLAGLWEFPSVRWEPSEQLQRKALLQELQRWAGPLPATHLRHLGEVVHTFSHIKLTYQVYGLALEGQTPVTTVPPGARWLTQEEFHTAAVSTAMKKVFRVYQGQQPGTCMGSKRSQVSSPCSRKKPRMGQQVLDNFFRSHISTDAHSLNSAAQ [T380R], with 0.162.

With MRKPRAAVGSGHRKQAASQEGRQKHAKNNSQAKPSACDGLARQPEEVVLQASVSSYHLFRDVAEVTAFRGSLLSWYDQEKRDLPWRRRAEDEMDLDRRAYAVWVSEVMLQQTQVATVINYYTGWMQKWPTLQDLASASLEEVNQLWAGLGYYSRGRRLQEGARKVVEELGGHMPRTAETLQQLLPGVGRYTAGAIASIAFGQATGVVDGNVARVLCRVRAIGADPSSTLVSQQLWGLAQQLVDPARPGDFNQAAMELGATVCTPQRPLCSQCPVESLCRARQRVEQEQLLASGSLSGSPDVEECAPNTGQCHLCLPPSEPWDQTLGVVNFPRKASRKPPREESSATCVLEQPGALGAQILLVQRPNSGLLAGLWEFPSVVWEPSEQLQRKALLQELQRWAGPLPATHLRHLGEVVHTFSHIKLTYQVYGLALEGQTPVTTVPPGARWLTQEEFHTAAVSTAMKKVFRVYQGQQPGTCMGSKRSQVSSPCSRKKPRMGQQVLDNFFRSHISTDAHSLNSAAQ [T380V], the “8OG:A repair function score” value was -0.0828.

On to MRKPRAAVGSGHRKQAASQEGRQKHAKNNSQAKPSACDGLARQPEEVVLQASVSSYHLFRDVAEVTAFRGSLLSWYDQEKRDLPWRRRAEDEMDLDRRAYAVWVSEVMLQQTQVATVINYYTGWMQKWPTLQDLASASLEEVNQLWAGLGYYSRGRRLQEGARKVVEELGGHMPRTAETLQQLLPGVGRYTAGAIASIAFGQATGVVDGNVARVLCRVRAIGADPSSTLVSQQLWGLAQQLVDPARPGDFNQAAMELGATVCTPQRPLCSQCPVESLCRARQRVEQEQLLASGSLSGSPDVEECAPNTGQCHLCLPPSEPWDQTLGVVNFPRKASRKPPREESSATCVLEQPGALGAQILLVQRPNSGLLAGLWEFPSVYWEPSEQLQRKALLQELQRWAGPLPATHLRHLGEVVHTFSHIKLTYQVYGLALEGQTPVTTVPPGARWLTQEEFHTAAVSTAMKKVFRVYQGQQPGTCMGSKRSQVSSPCSRKKPRMGQQVLDNFFRSHISTDAHSLNSAAQ [T380Y], for which the “8OG:A repair function score” value was 0.0876. As for MRKPRAAVGSGHRKQAASQEGRQKHAKNNSQAKPSACDGLARQPEEVVLQASVSSYHLFRDVAEVTAFRGSLLSWYDQEKRDLPWRRRAEDEMDLDRRAYAVWVSEVMLQQTQVATVINYYTGWMQKWPTLQDLASASLEEVNQLWAGLGYYSRGRRLQEGARKVVEELGGHMPRTAETLQQLLPGVGRYTAGAIASIAFGQATGVVDGNVARVLCRVRAIGADPSSTLVSQQLWGLAQQLVDPARPGDFNQAAMELGATVCTPQRPLCSQCPVESLCRARQRVEQEQLLASGSLSGSPDVEECAPNTGQCHLCLPPSEPWDQTLGVVNFPRKASRKPPREESSATCVLEQPGALGAQILLVQRPNSGLLAGLWEFPSVWWEPSEQLQRKALLQELQRWAGPLPATHLRHLGEVVHTFSHIKLTYQVYGLALEGQTPVTTVPPGARWLTQEEFHTAAVSTAMKKVFRVYQGQQPGTCMGSKRSQVSSPCSRKKPRMGQQVLDNFFRSHISTDAHSLNSAAQ [T380W], the “8OG:A repair function score” value was -0.271.
